The results in this text go back to US20220249679A1, “BI-SPECIFIC BINDING AGENTS TARGETING SYNDECAN-1 AND FIBROBLAST GROWTH FACTOR RECEPTOR” (Mitsubishi Tanabe Pharma Corporation, priority 2018, published 2022).

“And” between values parts separate entries of the source, which are not always exact repeats. Equal values may be shown once.

Assay [1] deals with Human CD138 His (human) (UniProt P18827). Description: SPR (BioRad Proteon), CD138 His immobilized, bivalent analyte fit.
For assay [2] the target is unchanged. Description: SPR, summary table.

Chain of Human CD138 His (human) (P18827 23-254 limits assumed): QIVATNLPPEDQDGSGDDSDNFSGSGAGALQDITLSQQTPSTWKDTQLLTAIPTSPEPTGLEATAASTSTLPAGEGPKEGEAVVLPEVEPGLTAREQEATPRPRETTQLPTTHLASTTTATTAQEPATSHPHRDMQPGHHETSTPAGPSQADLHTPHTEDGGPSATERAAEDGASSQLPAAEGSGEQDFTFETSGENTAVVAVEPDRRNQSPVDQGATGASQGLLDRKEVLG

In the case of mBT062 (antibody), in the assay with Human CD138 His (human) [1], the Kd was 1.95 nM and 2 nM; the koff (in general, the rate constant with which the complex falls apart) is 0.000666 s⁻¹; the kon (usually the rate constant with which the complex forms) is 342000 M⁻¹ s⁻¹. The Kd with Human CD138 His (human) [2] is 2 nM.
